Data taken from the supplement of paper PMC5998384.

Key:
HeLa Kyoto [1] = experiment: solubility change mitosis vs G1/S (difference of NP-40 vs SDS log2 ratios) (log2 ratio difference); higher = more soluble in mitosis
HeLa Kyoto [2] = experiment: solubility in G1/S (NP-40 vs SDS abundance) (log2 ratio); higher = more soluble; conditions: cell cycle stage: G1/S
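For solubility change mitosis vs G1/S (difference of NP-40 vs SDS log2 ratios) in this document: synchronized HeLa Kyoto cells (double thymidine block for G1/S, nocodazole release for mitosis), protein amounts in NP-40 versus SDS lysates quantified by mass spectrometry, three biological replicates.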
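For solubility in G1/S (NP-40 vs SDS abundance) in this document: HeLa Kyoto cells arrested at G1/S by double thymidine block, proteins quantified by TMT10plex mass spectrometry in mild NP-40 versus SDS extracts, three biological replicates.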

| Sequence | solubility change mitosis (log2) (HeLa Kyoto [1]) | solubility in G1/S (log2) (HeLa Kyoto [2]) |
| --- | --- | --- |
| MASQLQVFSPPSVSSSAFCSAKKLKIEPSGWDVSGQSSNDKYYTHSKTLPATQGQANSSHQVANFNIPAYDQGLLLPAPAVEHIVVTAADSSGSAATSTFQSSQTLTHRSNVSLLEPYQKCGLKRKSEEVDSNGSVQIIEEHPPLMLQNRTVVGAAATTTTVTTKSSSSSGEGDYQLVQHEILCSMTNSYEVLEFLGRGTFGQVAKCWKRSTKEIVAIKILKNHPSYARQGQIEVSILSRLSSENADEYNFVRSYECFQHKNHTCLVFEMLEQNLYDFLKQNKFSPLPLKYIRPILQQVATALMKLKSLGLIHADLKPENIMLVDPVRQPYRVKVIDFGSASHVSKAVCSTYLQSRYYRAPEIILGLPFCEAIDMWSLGCVIAELFLGWPLYPGASEYDQIRYISQTQGLPAEYLLSAGTKTTRFFNRDPNLGYPLWRLKTPEEHELETGIKSKEARKYIFNCLDDMAQVNMSTDLEGTDMLAEKADRREYIDLLKKMLTIDADKRITPLKTLNHQFVTMTHLLDFPHSNHVKSCFQNMEICKRRVHMYDTVSQIKSPFTTHVAPNTSTNLTMSFSNQLNTVHNQASVLASSSTAAAATLSLANSDVSLLNYQSALYPSSAAPVPGVAQQGVSLQPGTTQICTQTDPFQQTFIVCPPAFQTGLQATTKHSGFPVRMDNAVPIVPQAPAAQPLQIQSGVLTQGSCTPLMVATLHPQVATITPQYAVPFTLSCAAGRPALVEQTAAVLQAWPGGTQQILLPSTWQQLPGVALHNSVQPTAMIPEAMGSGQQLADWRNAHSHGNQYSTIMQQPSLLTNHVTLATAQPLNVGVAHVVRQQQSSSLPSKKNKQSAPVSSKSSLDVLPSQVYSLVGSSPLRTTSSYNSLVPVQDQHQPIIIPDTPSPPVSVITIRSDTDEEEDNKYKPSSSGLKPRSNVISYVTVNDSPDSDSSLSSPYSTDTLSALRGNSGSVLEGPGRVVADGTGTRTIIVPPLKTQLGDCTVATQASGLLSNKTKPVASVSGQSSGCCITPTGYRAQRGGTSAAQPLNLSQNQQSSAAPTSQERSSNPAPRRQQAFVAPLSQAPYTFQHGSPLHSTGHPHLAPAPAHLPSQAHLYTYAAPTSAAALGSTSSIAHLFSPQGSSRHAAAYTTHPSTLVHQVPVSVGPSLLTSASVAPAQYQHQFATQSYIGSSRGSTIYTGYPLSPTKISQYSYL [HIPK1] | -0.386 | 0.478 |
| MASSHSSSPVPQGSSSDVFFKIEVDPSKHIRPVPSLPDVCPKEPTGDSHSLYVAPSLVTDQHRWTVYHSKVNLPAALNDPRLAKRESDFFTKTWGLDFVDTEVIPSFYLPQISKEHFTVYQQEISQREKIHERCKNICPPKDTFERTLLHTHDKSRTDLEQVPKIFMKPDFALDDSLTFNSVLPWSHFNTAGGKGNRDAASSKLLQEKLSHYLDIVEVNIAHQISLRSEAFFHAMTSQHELQDYLRKTSQAVKMLRDKIAQIDKVMCEGSLHILRLALTRNNCVKVYNKLKLMATVHQTQPTVQVLLSTSEFVGALDLIATTQEVLQQELQGIHSFRHLGSQLCELEKLIDKMMIAEFSTYSHSDLNRPLEDDCQVLEEERLISLVFGLLKQRKLNFLEIYGEKMVITAKNIIKQCVINKVSQTEEIDTDVVVKLADQMRMLNFPQWFDLLKDIFSKFTIFLQRVKATLNIIHSVVLSVLDKNQRTRELEEISQQKNAAKDNSLDTEVAYLIHEGMFISDAFGEGELTPIAVDTTSQRNASPNSEPCSSDSVSEPECTTDSSSSKEHTSSSAIPGGVDIMVSEDMKLTDSELGKLANNIQELLYSASDICHDRAVKFLMSRAKDGFLEKLNSMEFITLSRLMETFILDTEQICGRKSTSLLGALQSQAIKFVNRFHEERKTKLSLLLDNERWKQADVPAEFQDLVDSLSDGKIALPEKKSGATEERKPAEVLIVEGQQYAVVGTVLLLIRIILEYCQCVDNIPSVTTDMLTRLSDLLKYFNSRSCQLVLGAGALQVVGLKTITTKNLALSSRCLQLIVHYIPVIRAHFEARLPPKQYSMLRHFDHITKDYHDHIAEISAKLVAIMDSLFDKLLSKYEVKAPVPSACFRNICKQMTKMHEAIFDLLPEEQTQMLFLRINASYKLHLKKQLSHLNVINDGGPQNGLVTADVAFYTGNLQALKGLKDLDLNMAEIWEQKR [VPS54] | 0.126 | -0.136 |
| MASSLLAGERLVRALGPGGELEPERLPRKLRAELEAALGKKHKGGDSSSGPQRLVSFRLIRDLHQHLRERDSKLYLHELLEGSEIYLPEVVKPPRNPELVARLEKIKIQLANEEYKRITRNVTCQDTRHGGTLSDLGKQVRSLKALVITIFNFIVTVVAAFVCTYLGSQYIFTEMASRVLAALIVASVVGLAELYVMVRAMEGELGEL [TMEM199] | -0.0986 | -0.349 |
| MASTRSIELEHFEERDKRPRPGSRRGAPSSSGGSSSSGPKGNGLIPSPAHSAHCSFYRTRTLQALSSEKKAKKARFYRNGDRYFKGLVFAISSDRFRSFDALLIELTRSLSDNVNLPQGVRTIYTIDGSRKVTSLDELLEGESYVCASNEPFRKVDYTKNINPNWSVNIKGGTSRALAAASSVKSEVKESKDFIKPKLVTVIRSGVKPRKAVRILLNKKTAHSFEQVLTDITEAIKLDSGVVKRLCTLDGKQVTCLQDFFGDDDVFIACGPEKFRYAQDDFVLDHSECRVLKSSYSRSSAVKYSGSKSPGPSRRSKSPASVNGTPSSQLSTPKSTKSSSSSPTSPGSFRGLKQISAHGRSSSNVNGGPELDRCISPEGVNGNRCSESSTLLEKYKIGKVIGDGNFAVVKECIDRSTGKEFALKIIDKAKCCGKEHLIENEVSILRRVKHPNIIMLVEEMETATELFLVMELVKGGDLFDAITSSTKYTERDGSAMVYNLANALRYLHGLSIVHRDIKPENLLVCEYPDGTKSLKLGDFGLATVVEGPLYTVCGTPTYVAPEIIAETGYGLKVDIWAAGVITYILLCGFPPFRSENNLQEDLFDQILAGKLEFPAPYWDNITDSAKELISQMLQVNVEARCTAGQILSHPWVSDDASQENNMQAEVTGKLKQHFNNALPKQNSTTTGVSVIMNTALDKEGQIFCSKHCQDSGRPGMEPISPVPPSVEEIPVPGEAVPAPTPPESPTPHPPPAAPGGERAGTWRRHRD [DCLK2] | -0.0347 | -0.0668 |
| MATLIYVDKENGEPGTRVVAKDGLKLGSGPSIKALDGRSQVSTPRFGKTFDAPPALPKATRKALGTVNRATEKSVKTKGPLKQKQPSFSAKKMTEKTVKAKSSVPASDDAYPEIEKFFPFNPLDFESFDLPEEHQIAHLPLSGVPLMILDEERELEKLFQLGPPSPVKMPSPPWESNLLQSPSSILSTLDVELPPVCCDIDI [PTTG1] | 0.554 | 0.176 |
| MATLWGGLLRLGSLLSLSCLALSVLLLAQLSDAAKNFEDVRCKCICPPYKENSGHIYNKNISQKDCDCLHVVEPMPVRGPDVEAYCLRCECKYEERSSVTIKVTIIIYLSILGLLLLYMVYLTLVEPILKRRLFGHAQLIQSDDDIGDHQPFANAHDVLARSRSRANVLNKVEYAQQRWKLQVQEQRKSVFDRHVVLS [TMEM9B] | -0.12 | -0.235 |
| MAVAVGRPSNEELRNLSLSGHVGFDSLPDQLVNKSTSQGFCFNILCVGETGIGKSTLMDTLFNTKFESDPATHNEPGVRLKARSYELQESNVRLKLTIVDTVGFGDQINKDDSYKPIVEYIDAQFEAYLQEELKIKRSLFNYHDTRIHACLYFIAPTGHSLKSLDLVTMKKLDSKVNIIPIIAKADTIAKNELHKFKSKIMSELVSNGVQIYQFPTDEETVAEINATMSVHLPFAVVGSTEEVKIGNKMAKARQYPWGVVQVENENHCDFVKLREMLIRVNMEDLREQTHTRHYELYRRCKLEEMGFKDTDPDSKPFSLQETYEAKRNEFLGELQKKEEEMRQMFVMRVKEKEAELKEAEKELHEKFDLLKRTHQEEKKKVEDKKKELEEEVNNFQKKKAAAQLLQSQAQQSGAQQTKKDKDKKNASFT [SEPT11] | 0.12 | -0.0512 |
| MAVTKELLQMDLYALLGIEEKAADKEVKKAYRQKALSCHPDKNPDNPRAAELFHQLSQALEVLTDAAARAAYDKVRKAKKQAAERTQKLDEKRKKVKLDLEARERQAQAQESEEEEESRSTRTLEQEIERLREEGSRQLEEQQRLIREQIRQERDQRLRGKAENTEGQGTPKLKLKWKCKKEDESKGGYSKDVLLRLLQKYGEVLNLVLSSKKPGTAVVEFATVKAAELAVQNEVGLVDNPLKISWLEGQPQDAVGRSHSGLSKGSVLSERDYESLVMMRMRQAAERQQLIARMQQEDQEGPPT [DNAJC17] | 0.205 | 0.702 |
| MCAQYCISFADVEKAHINIRDSIHLTPVLTSSILNQLTGRNLFFKCELFQKTGSFKIRGALNAVRSLVPDALERKPKAVVTHSSGNHGQALTYAAKLEGIPAYIVVPQTAPDCKKLAIQAYGASIVYCEPSDESRENVAKRVTEETEGIMVHPNQEPAVIAGQGTIALEVLNQVPLVDALVVPVGGGGMLAGIAITVKALKPSVKVYAAEPSNADDCYQSKLKGKLMPNLYPPETIADGVKSSIGLNTWPIIRDLVDDIFTVTEDEIKCATQLVWERMKLLIEPTAGVGVAAVLSQHFQTVSPEVKNICIVLSGGNVDLTSSITWVKQAERPASYQSVSV [SRR] | 0.0667 | 0.0946 |
| MCDQQQIQCRLPLQQCCVKGPSFCSSQSPFAQSQVVVQAPCEMQIVDCPASCPVQVCQVSDQAPCQSQTTQVKCQSKTKQVKGQAQCQSKTTQVKGQAASQSQTSSVQSQAPCQSEVSYVQCEASQPVQTCFVECAPVCYTETCYVECPVQNYVPCPAPQPVQMYRGRPAVCQPQGRFSTQCQYQGSYSSCGPQFQSRATCNNYTPQFQLRPSYSSCFPQYRSRTSFSPCVPQCQTQGSYGSFTEQHRSRSTSRCLPPPRRLQLFPRSCSPPRRFEPCSSSYLPLRPSEGFPNYCTPPRRSEPIYNSRCPRRPISSCSQRRGPKCRIEISSPCCPRQVPPQRCPVEIPPIRRRSQSCGPQPSWGASCPELRPHVEPRPLPSFCPPRRLDQCPESPLQRCPPPAPRPRLRPEPCISLEPRPRPLPRQLSEPCLYPEPLPALRPTPRPVPLPRPGQCEIPEPRPCLQPCEHPEPCPRPEPIPLPAPCPSPEPCRETWRSPSPCWGPNPVPYPGDLGCHESSPHRLDTEAPYCGPSSYNQGQESGAGCGPGDVFPERRGQDGHGDQGNAFAGVKGEAKSAYF [KPRP] | 1.12 | -1.06 |
| MDDDKPFQPKNISKMAELFMECEEEELEPWQKKVEETQDEDDDELIFVGEISSSKPAISNILNRGHSSSSSKGIKSEPHSPGIPEIFRTASQRCRDPPSNPVAASPRFHLVSKSSQSSVTVENASKPDFTKNSQVGSDNSSILLFDSTQESLPPSQDIPAIFREGMKNTSYVLKHPSTSKVNSVTPKKPKTSEDVPQINPSTSLPLIGSPPVTSSQVMLSKGTNTSSPYDAGADYLRACPKCNVQFNLLDPLKYHMKHCCPDMITKFLGVIVKSERPCDEDKTDSETGKLIMLVNEFYYGRHEGVTEKEPKTYTTFKCFSCSKVLKNNIRFMNHMKHHLELEKQNNESWENHTTCQHCYRQYPTPFQLQCHIESTHTPHEFSTICKICELSFETEHILLQHMKDTHKPGEMPYVCQVCQFRSSTFSDVEAHFRAAHENTKNLLCPFCLKVSKMATPYMNHYMKHQKKGVHRCPKCRLQFLTSKEKAEHKAQHRTFIKPKELEGLPPGAKVTIRASLGPLQSKLPTAPFGCAPGTSFLQVTPPTSQNTTARNPRKSNASRSKTSKLHATTSTASKVNTSKPRGRIAKSKAKPSYKQKRQRNRKNKMSLALKNIRCRRGIHKCIECHSKIKDFASHFSIYIHCSFCKYNTNCNKAFVNHMMSSHSNHPGKRFCIFKKHSGTLRGITLVCLKCDFLADSSGLDRMAKHLSQRKTHTCQVIIENVSKSTSTSEPTTGCSLK [ZNF280C] | 0.796 | -1.44 |
